Tests used:
[1] = biological target: T1, Human PD-L1/CD274 with C-Fc Tag (hPD-L1-Fc) (human, UniProt Q9NZQ7 19-238); experiment: blocking ELISA on coated hPD-L1-Fc; blocked ligand: biotinylated hPD-1-N297A
T1 construct: range 19-238; ACRO Biosystem PD1-H5258, made in HEK293; also called human PD-L1-Fc; not shown: Fc fragment of human IgG1 at C-terminus

[2] = biological target: T2, human PD-L1 expressed on cells (human, UniProt Q9NZQ7 19-290); experiment: FACS, IFN-gamma stimulated HCC827 cells
T2 construct: whole, on cells; also called hPD-L1 expressed on HCC827; hPD-L1 on MC38/hPD-L1 cells

[3] = biological target: T2, human PD-L1 expressed on cells; experiment: blocking FACS on HCC827 cells; blocked ligand: biotinylated hPD-1-N297A
Method: Log phase IFN-γ stimulated (500U/ml for 2 days) HCC827 cells were collected and resuspended in blocking buffer (5% BSA+PBS). 2×10\hat{ }5 cells were added to each tube and then washed once with PBS (1500 rpm, 5 mins, RT). […] After washing for three times with PBS, 100 μl/tube streptavidin-PE 1:200 in blocking buffer was added to each tube. The cells were incubated at 4° C. for 1 hr and then washed twice with PBS, followed by resuspending cells in 150 μl PBS for each sample. The cells were then transferred into FACS tube and the binding of the antibodies to the cells were detected with flow cytometry (ACEA Bioscience Novocyte) (see FIGS. 20A and 20B).

[4] = biological target: T3, Recombinant Mouse PD-L1/CD274 Protein (mPD-L1-his) (mouse, UniProt Q9EP73 19-238); experiment: ELISA, 20 ug/ml antibody on coated mouse PD-L1 (his-tagged per text, mPD-L1-Fc per sheet title)
T3 construct: range 19-238; ACRO Biosystem PD1-M5220; also called mouse PD-L1-his
Summary of the method: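 Wells coated overnight at 4 °C with 1 μg/ml mouse PD-L1-his, blocked 2 h with BSA/goat serum buffer; purified hybridoma mouse antibodies at 20 μg/ml bound 1 h at RT. Detection by HRP goat anti-mouse Fc (60 min, RT), TMB, acid stop, absorbance at 450 nm.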

[5] = biological target: T4, human PD-L1-Fc mutant E58A (human); experiment: ELISA on captured PD-L1-Fc, as in Example 18A
T4 construct: Position 58 counts on native human PD-L1 (NP_054862.1); also called E58A mutant

[6] = biological target: T5, wild type human PD-L1-Fc protein (SEQ ID NO: 107) (human); experiment: ELISA on captured PD-L1-Fc, as in Example 18A
T5 construct: Extracellular human PD-L1 (amino acid 19-238) with Fc fragment of human IgG1, expressed in 293T cells and used as culture supernatant; also called WT PD-L1; wild-type PD-L1

[7] = biological target: T1, Human PD-L1/CD274 with C-Fc Tag …; experiment: blocking ELISA on coated hPD-L1-Fc; blocked ligand: biotinylated hPD-1-Fc-N297A
Method: High-binding clear polystyrene 96 well plates (Nunc) were coated with 100 μl/well of coating solution consisting of 0.5 μg/ml hPD-L1-Fc overnight at 4° C. Then washed once on an automatic plate washer using washing buffer PBS+0.1% Tween 20 (Sigma). 200 μl of blocking buffer (PBS+1% BSA+1% normal goat serum+0.05% Tween-20) was added to each well and incubated for 2 hours at room temperature. Then add serial diluted antibodies (from 10 μg/ml to 0.0006 μg/ml) with dilution buffer (PBS+1% BSA+1% normal goat serum+0.01% Tween-20) and incubate for 1 hour at RT. The plates were then washed 3 times using the method described above. […] After the plates were washed 3 times, 100 μl/well of a solution of HRP conjugated Neutravidin antibody (Pierce) diluted in dilution buffer was then added to each well of the plate. After that the ELISA plates were allowed to incubate for 60 min at RT then plates were washed 3 times with 250 μl/well washing buffer. Finally, 100 μl/well of TMB was added to each well and reaction was terminated using 0.64M H₂SO₄. The plates were read on a Thermo Multiscan FC at 450 nM (see FIG. 4A).

hPD-L2-Fc = biological target: T6, hPD-L2-Fc (human, UniProt Q9BQ51 20-219); experiment: ELISA, plate coated with hPD-L2-Fc
T6 construct: Acrobiosystems PD2-H5251; also called human PD-L2 protein; not shown: Fc tag
T6 sequence (looked up): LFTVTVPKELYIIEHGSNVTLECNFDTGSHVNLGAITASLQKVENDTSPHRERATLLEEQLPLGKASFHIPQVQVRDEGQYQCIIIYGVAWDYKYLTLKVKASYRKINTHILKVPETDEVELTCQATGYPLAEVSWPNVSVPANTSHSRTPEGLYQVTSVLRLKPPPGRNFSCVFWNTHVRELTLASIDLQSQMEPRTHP
Method: Briefly, high-binding clear polystyrene 96 well plates (Nunc) were coated with 100 μl/well of a 0.5 μg/ml human PD-L1-Fc (Acrobiosystems, Cat #PD1-H5258) or 100 μl/well of a 1 μg/ml hPD-L2-Fc (Acrobiosystems, Cat #PD2-H5251), respectively, in high pH coating buffer (0.16% Na2CO3+0.3% NaHCO₃, pH 9.8) and incubated overnight at 4° C. Then the plates were washed once on an automatic plate washer using washing buffer (PBS+0.1% Tween 20 (Amresco)). 200 μl of blocking buffer (PBS+1% BSA+1% normal goat serum+0.05% Tween-20) was added to each well and incubated for 2 hours at room temp. Then add 100 μl 2 μg/ml purified PD-L1 antibodies with dilution buffer (PBS+1% BSA+1% normal goat serum+0.01% Tween-20) and incubate for 1 hour at RT. The plates were then washed 3 times with washing buffer. 100 μl/well of a solution of HRP conjugated goat anti-mouse IgG antibody (1:20000, Abcam) in dilution buffer was then added to each well of the plate. After that the ELISA plates were allowed to incubate for 60 min at RT then the plates were washed 3 times with 250 μl/well washing buffer. Finally, 100 μl/well of TMB was added to each well for 15 min and the reaction was terminated using 50 ul/well of 0.16 M/L sulfuric acid. The plates were read on a Thermo Multiscan FC at 450 nM (see FIG. 6G).

[8] = biological target: T7, Recombinant Human PD-L1/CD274 Protein (hPD-L1-his) (human, UniProt Q9NZQ7 19-238); experiment: ELISA, purified mouse antibody on coated hPD-L1-his
T7 construct: range 19-238; ACRO Biosystem PD1-H5229, made in HEK293; also called human PD-L1-his; hPD-L-his
Method: High-binding clear polystyrene 96 well plates (Nunc) were coated with 100 μl/well of a 0.5 μg/ml hPD-L1-his in high pH coating buffer and incubated overnight 4° C. Then plates were washed once on an automatic plate washer using washing buffer (PBS+0.1% Tween 20 (Sigma)). 200 μl of blocking buffer (PBS+1% BSA+1% normal goat serum+0.05% Tween-20) was added to each well and incubated 2 hours at room temp. Then add serially diluted purified antibodies with dilution buffer (PBS+1% BSA+1% normal goat serum+0.01% Tween-20) and incubate for 1 hour at RT. The plates were then washed 3 times using the method described above. 100 μl/well of a solution of HRP conjugated goat anti-mouse Fc antibody (Abcam) in dilution buffer was then added to each well of the plate. After that the ELISA plates were allowed to incubate for 60 min at RT then plates were washed 3 times with 250 μl/well washing buffer. Finally, 100 μl/well of TMB was added to each well and was terminated using 0.64M H₂SO₄. The plates were read on a Thermo Multiscan FC at 450 nM (see FIG. 3).

T5 sequence (chain, as listed by the source limits assumed): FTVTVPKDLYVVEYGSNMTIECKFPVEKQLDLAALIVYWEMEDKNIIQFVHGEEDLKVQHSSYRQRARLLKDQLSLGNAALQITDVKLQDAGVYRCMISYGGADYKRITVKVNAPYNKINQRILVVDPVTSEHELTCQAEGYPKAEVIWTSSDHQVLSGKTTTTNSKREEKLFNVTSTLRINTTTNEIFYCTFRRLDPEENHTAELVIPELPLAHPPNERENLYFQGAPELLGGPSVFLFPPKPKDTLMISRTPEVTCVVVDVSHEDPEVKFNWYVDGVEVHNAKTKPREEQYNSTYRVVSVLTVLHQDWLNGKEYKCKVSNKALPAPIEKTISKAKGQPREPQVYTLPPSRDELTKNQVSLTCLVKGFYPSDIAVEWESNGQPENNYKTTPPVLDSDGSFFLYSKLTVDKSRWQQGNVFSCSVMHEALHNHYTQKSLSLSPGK
T4 sequence (chain, as listed by the source E58A E58A limits assumed): as the sequence (chain, as listed by the source limits assumed) above, with E40A counted along it
T1 sequence (Q9NZQ7 19-238 limits assumed): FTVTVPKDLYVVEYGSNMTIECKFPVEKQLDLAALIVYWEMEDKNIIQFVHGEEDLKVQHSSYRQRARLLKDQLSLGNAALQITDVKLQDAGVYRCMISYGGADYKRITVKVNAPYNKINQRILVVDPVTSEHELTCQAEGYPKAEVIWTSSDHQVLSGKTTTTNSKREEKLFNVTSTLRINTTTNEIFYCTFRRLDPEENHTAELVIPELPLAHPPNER
T2 sequence (Q9NZQ7 19-290): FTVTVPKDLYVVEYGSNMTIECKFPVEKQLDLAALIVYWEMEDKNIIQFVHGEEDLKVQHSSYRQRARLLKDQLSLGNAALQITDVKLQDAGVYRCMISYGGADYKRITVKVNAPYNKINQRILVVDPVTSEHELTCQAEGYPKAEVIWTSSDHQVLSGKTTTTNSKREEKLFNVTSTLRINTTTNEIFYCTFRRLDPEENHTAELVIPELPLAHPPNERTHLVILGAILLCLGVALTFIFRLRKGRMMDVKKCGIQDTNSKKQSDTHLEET
T7 sequence (Q9NZQ7 other isoform, or with tags, fused parts or gaps limits assumed): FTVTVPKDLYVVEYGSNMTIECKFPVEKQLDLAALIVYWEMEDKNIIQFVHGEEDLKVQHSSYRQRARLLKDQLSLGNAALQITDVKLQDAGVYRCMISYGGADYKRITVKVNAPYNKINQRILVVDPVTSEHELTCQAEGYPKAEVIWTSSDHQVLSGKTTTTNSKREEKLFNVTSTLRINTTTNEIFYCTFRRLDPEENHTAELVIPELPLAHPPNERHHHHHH
T3 sequence (Q9EP73 other isoform, or with tags, fused parts or gaps limits assumed): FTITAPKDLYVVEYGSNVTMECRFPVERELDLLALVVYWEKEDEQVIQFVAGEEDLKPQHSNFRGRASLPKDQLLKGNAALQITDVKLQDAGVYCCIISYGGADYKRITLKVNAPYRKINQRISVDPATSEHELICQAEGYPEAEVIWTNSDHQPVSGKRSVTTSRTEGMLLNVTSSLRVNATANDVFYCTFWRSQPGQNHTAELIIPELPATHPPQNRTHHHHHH

B1: 4B6-H3L4 (antibody, V domains shown)
VH: QVQLVQSGAEVVKPGASVKISCKASGYVFTDYYMNWVKQAPGQGLEWIGDINPNNGGTSYNQKFQGRATVTVDKSTRTAYMELSRLRSDDTAVYYCVKWGDGPFAYWGQGTLVTVSS
VL: DIQMTQSPSSLSASVGDRVTITCQASQNVGAAVAWYQQKPGKAPKLLIYSASNLYTGVPSRFSGSGSGTDFTLTISSLQPEDIATYFCQQYSNYPTFGSGTKLGIK
notes: produced in 293 cells; light chain constant region not described; also called humanized 4B6 H3L4
IC50 (read off the curve) [1]: ~0.03 µg/mL | EC50 (read off the curve) [2]: ~0.04 µg/mL | IC50 (read off the curve) [3]: ~0.02 µg/mL

B2: 26F5 (antibody, V domains shown)
VH: QVQLQQPGAELVKPGASVKLSCKASGYTFPSYWMHWMKQRPGQGLEWIGMIQPSTSGTIYNERFKNQVTLTVDKSSSTAYMQLSSQTSEDSAVYYCARGTGTVDYFDYWGQGTTLTVSS
VL: DIVLTQSPASLAVSLGQRATISCRASESVDSYGNSFIHWYQQKPGQPPKLLIHRASNLESGIPATFSGSGSRTDFTLTINPVEADDVATYYCQQSKEDPYTFGGGTKLEIK
notes: Mouse monoclonal from hybridoma; also called mouse monoclonal antibody 26F5
binding result [4]: no binding (tested: 20 ug/ml) | % of binding of Ab to E58A mutant vs. that to WT PD-L1 [5]: 60.6% | Mean OD450 [5]: 0.93 OD450 | OD450 nM of sample-1 [5]: 1.18 OD450 | OD450 nM of sample-2 [5]: 0.678 OD450 | Mean OD450 [6]: 1.53 OD450 | OD450 nM of sample-1 [6]: 1.39 OD450 | OD450 nM of sample-2 [6]: 1.68 OD450 | IC50 (read off the curve) [7]: ~0.02 µg/mL | binding result (hPD-L2-Fc): no binding (tested: 2 ug/ml) | EC50 (read off the curve) [8]: ~0.003 µg/mL
